This note sets out measurements from article PMC5382021.

Assay in all cases: purified protein
Data set [1] deals with Nc1nc2c(ncn2[C@@H]2O[C@@H]3CO[P@](=O)(O)O[C@H]4[C@@H](O)[C@H](n5cnc6c(=O)[nH]c(N)nc65)O[C@@H]4CO[P@](=O)(O)O[C@H]3[C@H]2O)c(=O)[nH]1. Particulars: 50 mM Tris pH 7.5, 5 mM MnCl2, 37 °C.
The subject of data set [2] is Nc1nc2c(ncn2[C@@H]2O[C@@H]3COP(=O)(O)O[C@H]4[C@@H](O)[C@H](n5cnc6c(N)ncnc65)O[C@@H]4COP(=O)(O)O[C@H]3[C@H]2O)c(=O)[nH]1. The conditions noted are these: 50 mM Tris pH 7.5, 5 mM MnCl2, 37 °C.
For data set [3], the system named is O=c1ccn([C@@H]2O[C@H](CO)[C@H]3OP(=O)(O)O[C@H]32)c(=O)[nH]1. The conditions noted are these: 2 mM Mn2+, pH 7.5.
Data set [4] deals with [H][C@@]1(O)[C@]2([H])OP(=O)(O)OC[C@@]3([H])O[C@@]([H])(n4cnc5c(N)ncnc54)[C@]([H])(O)[C@]3([H])OP(=O)(O)OC[C@@]2([H])O[C@@]1([H])n1cnc2c(N)ncnc21. The conditions noted are these: 50 mM Tris pH 7.5, 5 mM MnCl2, 37 °C.
For data set [5], the system named is Nc1nc2c(ncn2[C@@H]2O[C@H](CO)[C@H]3OP(=O)(O)O[C@H]32)c(=O)[nH]1. Particulars: 2 mM Mn2+, pH 7.5.

What is called Km is the concentration of substrate that gives half-maximal velocity. Broadly, the kcat is the maximal rate divided by the concentration of active sites. What is called kcat/Km is the second-order rate constant that governs catalysis at low substrate concentration. On to “rCdnP (CdnP, Gbs1929) (Streptococcus agalactiae 2603V/R)”, for which the Michaelis-Menten constant (Km) in data set [1] turned out to be 13.2 ± 6 µM; in data set [2], 4.0 ± 1.6 µM; in data set [3], 42 ± 10 µM; in data set [4], 14 ± 1 µM; in data set [5], 22 ± 4 µM. The catalytic constant (kcat) in data set [1] was found to be 2.6 s⁻¹; in data set [2] it was 4.5 s⁻¹; in data set [3], 19.8 s⁻¹; in data set [4] it was 17.4 s⁻¹; in data set [5] it was 9.4 s⁻¹. Further, the kcat/Km in data set [1] came to 190000 M⁻¹ s⁻¹; in data set [2] it was 1.1e+06 M⁻¹ s⁻¹; in data set [3], 470000 M⁻¹ s⁻¹; in data set [4], 1.2e+06 M⁻¹ s⁻¹; in data set [5], 420000 M⁻¹ s⁻¹.
